B12: UL31 51-306 R229L (SUP_(UL31)Δ50-306) (domain or fragment)
chain: QELCLHERQRYRGLFAALAQTPSEEIAIVRSLSVPLVKTTPVSLPFCLDQTVADNCLTLSGMGYYLGIGGCCPACNAGDGRFAATSREALILAFVQQINTIFEHRAFLASLVVLADRHNAPLQDLLAGILGQPELFFVHTILRGGGACDPRLLFYPDPTYGGHMLYVIFPGTSAHLHYLLIDRMLTACPGYRFVAHVWQSTFVLVVRRNAEKPTDAEIPTVSAADIYCKMRDISFDGGLMLEYQRLYATFDEFPPP
notes: also called R229L_(UL31)Δ50-306; UL31 chain of NEC185Δ50-SUP_(UL31)

Columns and labels:
[1] = target: T1, UL31 1-306 (wild type) (HSV-1, UniProt P10215 1-306); experiment: cryo-EM structure; cryoET with sub-tomographic averaging of membrane-bound coats; 1 mg/mL NEC with 400 and 800 nm LUVs (POPC:POPS:POPA = 3:1:1), 30 min on ice; conditions: both partners purified
T1 construct: also called WT UL31; UL31 chain of NEC220
T1 sequence: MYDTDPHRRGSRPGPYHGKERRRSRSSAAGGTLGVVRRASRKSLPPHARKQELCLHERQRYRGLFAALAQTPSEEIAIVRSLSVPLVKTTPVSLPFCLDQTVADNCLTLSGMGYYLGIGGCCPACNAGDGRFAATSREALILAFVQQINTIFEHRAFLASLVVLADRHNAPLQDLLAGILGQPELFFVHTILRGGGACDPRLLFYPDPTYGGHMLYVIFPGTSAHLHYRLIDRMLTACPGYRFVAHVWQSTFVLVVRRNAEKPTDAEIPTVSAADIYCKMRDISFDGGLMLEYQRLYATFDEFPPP

[2] = target: the molecule itself; experiment: as above
[3] = target: T1, UL31 1-306 (wild type); experiment: SEC; co-expressed and co-purified UL31/UL34, tags cleaved, equimolar amounts loaded on Superdex 75 10/300 in 20 mM Na HEPES pH 7.0, 100 mM NaCl, 1 mM TCEP, 4°C; fractions analysed by SDS-PAGE; conditions: both partners purified
[4] = target: T2, UL31 1-306 R229L_(UL31) (HSV-1, UniProt P10215 1-306, R229L); experiment: as above; conditions: both partners purified
T2 construct: also called SUP_(UL31); UL31 chain of NEC220-SUP_(UL31)
T2 sequence: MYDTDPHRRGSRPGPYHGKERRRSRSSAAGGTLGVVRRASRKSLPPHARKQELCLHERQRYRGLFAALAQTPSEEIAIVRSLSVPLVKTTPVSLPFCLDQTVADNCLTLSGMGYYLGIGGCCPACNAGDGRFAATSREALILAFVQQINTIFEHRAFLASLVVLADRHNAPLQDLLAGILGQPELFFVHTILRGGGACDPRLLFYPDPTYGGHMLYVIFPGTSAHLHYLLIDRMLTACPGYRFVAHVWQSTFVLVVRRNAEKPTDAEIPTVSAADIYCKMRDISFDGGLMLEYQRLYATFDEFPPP

[5] = target: B12; experiment: crystal structure; conditions: both partners purified
[6] = target: the molecule itself; experiment: crystal structure

B1: UL34 1-220 (wild type) (domain or fragment)
chain: MAGLGKPYTGHPGDAFEGLVQRIRLIVPSTLRGGDGEAGPYSPSSLPSRCAFQFHGHDGSDESFPIEYVLRLMNDWAEVPCNPYLRIQNTGVSVLFQGFFHRPHNAPGGAITPERTNVILGSTETTGLSLGDLDTIKGRLGLDARPMMASMWISCFVRMPRVQLAFRFMGPEDAGRTRRILCRAAEQAITRRRRTRRSREAYGAEAGLGVAGTGFRARGD
notes: also called UL34 chain of NEC220; not shown: GST, N-terminal, cleaved
binding result [1]: binds

B2: NEC220 (wild-type HSV-1 nuclear egress complex, UL31 1-306 with UL34 1-220) (complex)
chain 1: MYDTDPHRRGSRPGPYHGKERRRSRSSAAGGTLGVVRRASRKSLPPHARKQELCLHERQRYRGLFAALAQTPSEEIAIVRSLSVPLVKTTPVSLPFCLDQTVADNCLTLSGMGYYLGIGGCCPACNAGDGRFAATSREALILAFVQQINTIFEHRAFLASLVVLADRHNAPLQDLLAGILGQPELFFVHTILRGGGACDPRLLFYPDPTYGGHMLYVIFPGTSAHLHYRLIDRMLTACPGYRFVAHVWQSTFVLVVRRNAEKPTDAEIPTVSAADIYCKMRDISFDGGLMLEYQRLYATFDEFPPP
chain 2: MAGLGKPYTGHPGDAFEGLVQRIRLIVPSTLRGGDGEAGPYSPSSLPSRCAFQFHGHDGSDESFPIEYVLRLMNDWAEVPCNPYLRIQNTGVSVLFQGFFHRPHNAPGGAITPERTNVILGSTETTGLSLGDLDTIKGRLGLDARPMMASMWISCFVRMPRVQLAFRFMGPEDAGRTRRILCRAAEQAITRRRRTRRSREAYGAEAGLGVAGTGFRARGD
binding result [2]: binds

B3: NEC220-SUP_(UL31) (complex)
chain 1: MYDTDPHRRGSRPGPYHGKERRRSRSSAAGGTLGVVRRASRKSLPPHARKQELCLHERQRYRGLFAALAQTPSEEIAIVRSLSVPLVKTTPVSLPFCLDQTVADNCLTLSGMGYYLGIGGCCPACNAGDGRFAATSREALILAFVQQINTIFEHRAFLASLVVLADRHNAPLQDLLAGILGQPELFFVHTILRGGGACDPRLLFYPDPTYGGHMLYVIFPGTSAHLHYLLIDRMLTACPGYRFVAHVWQSTFVLVVRRNAEKPTDAEIPTVSAADIYCKMRDISFDGGLMLEYQRLYATFDEFPPP
chain 2: MAGLGKPYTGHPGDAFEGLVQRIRLIVPSTLRGGDGEAGPYSPSSLPSRCAFQFHGHDGSDESFPIEYVLRLMNDWAEVPCNPYLRIQNTGVSVLFQGFFHRPHNAPGGAITPERTNVILGSTETTGLSLGDLDTIKGRLGLDARPMMASMWISCFVRMPRVQLAFRFMGPEDAGRTRRILCRAAEQAITRRRRTRRSREAYGAEAGLGVAGTGFRARGD
notes: also called NEC-SUP_(UL31)
binding result [2]: binds

B4: NEC220-DN_(UL34)/SUP_(UL31) (complex)
chain 1: MYDTDPHRRGSRPGPYHGKERRRSRSSAAGGTLGVVRRASRKSLPPHARKQELCLHERQRYRGLFAALAQTPSEEIAIVRSLSVPLVKTTPVSLPFCLDQTVADNCLTLSGMGYYLGIGGCCPACNAGDGRFAATSREALILAFVQQINTIFEHRAFLASLVVLADRHNAPLQDLLAGILGQPELFFVHTILRGGGACDPRLLFYPDPTYGGHMLYVIFPGTSAHLHYLLIDRMLTACPGYRFVAHVWQSTFVLVVRRNAEKPTDAEIPTVSAADIYCKMRDISFDGGLMLEYQRLYATFDEFPPP
chain 2: MAGLGKPYTGHPGDAFEGLVQRIRLIVPSTLRGGAGAAGPYSPSSLPSRCAFQFHGHDGSDESFPIEYVLRLMNDWAEVPCNPYLRIQNTGVSVLFQGFFHRPHNAPGGAITPERTNVILGSTETTGLSLGDLDTIKGRLGLDARPMMASMWISCFVRMPRVQLAFRFMGPEDAGRTRRILCRAAEQAITRRRRTRRSREAYGAEAGLGVAGTGFRARGD
notes: also called NEC-DN_(UL34)/SUP_(UL31)
binding result [2]: binds

B5: UL34 1-220 R139A_(UL34) (domain or fragment)
chain: MAGLGKPYTGHPGDAFEGLVQRIRLIVPSTLRGGDGEAGPYSPSSLPSRCAFQFHGHDGSDESFPIEYVLRLMNDWAEVPCNPYLRIQNTGVSVLFQGFFHRPHNAPGGAITPERTNVILGSTETTGLSLGDLDTIKGALGLDARPMMASMWISCFVRMPRVQLAFRFMGPEDAGRTRRILCRAAEQAITRRRRTRRSREAYGAEAGLGVAGTGFRARGD
notes: also called UL34 chain of NEC220-R139A_(UL34); not shown: GST, N-terminal, cleaved
binding result [3]: binds

B6: UL34 1-220 K137A_(UL34) (domain or fragment)
chain: MAGLGKPYTGHPGDAFEGLVQRIRLIVPSTLRGGDGEAGPYSPSSLPSRCAFQFHGHDGSDESFPIEYVLRLMNDWAEVPCNPYLRIQNTGVSVLFQGFFHRPHNAPGGAITPERTNVILGSTETTGLSLGDLDTIAGRLGLDARPMMASMWISCFVRMPRVQLAFRFMGPEDAGRTRRILCRAAEQAITRRRRTRRSREAYGAEAGLGVAGTGFRARGD
notes: also called UL34 chain of NEC220-K137A_(UL34); not shown: GST, N-terminal, cleaved
binding result [3]: binds | binding result [4]: binds

B7: UL34 1-220 K137A_(UL34)/R139A_(UL34) (domain or fragment)
chain: MAGLGKPYTGHPGDAFEGLVQRIRLIVPSTLRGGDGEAGPYSPSSLPSRCAFQFHGHDGSDESFPIEYVLRLMNDWAEVPCNPYLRIQNTGVSVLFQGFFHRPHNAPGGAITPERTNVILGSTETTGLSLGDLDTIAGALGLDARPMMASMWISCFVRMPRVQLAFRFMGPEDAGRTRRILCRAAEQAITRRRRTRRSREAYGAEAGLGVAGTGFRARGD
notes: also called UL34 chain of NEC220-K137A_(UL34)/R139A_(UL34); not shown: GST, N-terminal, cleaved
binding result [3]: binds | binding result [4]: binds

B8: UL34 15-185 D35A_(UL34)/E37A_(UL34) (domain or fragment)
chain: AFEGLVQRIRLIVPSTLRGGAGAAGPYSPSSLPSRCAFQFHGHDGSDESFPIEYVLRLMNDWAEVPCNPYLRIQNTGVSVLFQGFFHRPHNAPGGAITPERTNVILGSTETTGLSLGDLDTIKGRLGLDARPMMASMWISCFVRMPRVQLAFRFMGPEDAGRTRRILCRAA
notes: also called DN_(UL34); UL34 chain of NEC185Δ50-DN_(UL34)/SUP_(UL31); not shown: GST, N-terminal, cleaved
binding result [5]: binds

B9: NEC185Δ50-DN_(UL34)/SUP_(UL31) (complex)
chain 1: QELCLHERQRYRGLFAALAQTPSEEIAIVRSLSVPLVKTTPVSLPFCLDQTVADNCLTLSGMGYYLGIGGCCPACNAGDGRFAATSREALILAFVQQINTIFEHRAFLASLVVLADRHNAPLQDLLAGILGQPELFFVHTILRGGGACDPRLLFYPDPTYGGHMLYVIFPGTSAHLHYLLIDRMLTACPGYRFVAHVWQSTFVLVVRRNAEKPTDAEIPTVSAADIYCKMRDISFDGGLMLEYQRLYATFDEFPPP
chain 2: AFEGLVQRIRLIVPSTLRGGAGAAGPYSPSSLPSRCAFQFHGHDGSDESFPIEYVLRLMNDWAEVPCNPYLRIQNTGVSVLFQGFFHRPHNAPGGAITPERTNVILGSTETTGLSLGDLDTIKGRLGLDARPMMASMWISCFVRMPRVQLAFRFMGPEDAGRTRRILCRAA
notes: also called NEC-DN_(UL34)/SUP_(UL31) crystallization construct; NEC185Δ50-DN34/SUP31; source: E. coli BL21(DE3) LoBSTr, co-expressed, purified (Ni Sepharose, Glutathione Sepharose, tags cleaved, Talon, Superdex 75)
binding result [6]: binds

B10: UL34 15-185 (domain or fragment)
chain: AFEGLVQRIRLIVPSTLRGGDGEAGPYSPSSLPSRCAFQFHGHDGSDESFPIEYVLRLMNDWAEVPCNPYLRIQNTGVSVLFQGFFHRPHNAPGGAITPERTNVILGSTETTGLSLGDLDTIKGRLGLDARPMMASMWISCFVRMPRVQLAFRFMGPEDAGRTRRILCRAA
notes: also called UL34 chain of NEC185Δ50-SUP_(UL31); not shown: GST, N-terminal, cleaved
binding result [5]: binds | binding result [6]: binds

B11: NEC185Δ50-SUP_(UL31) (complex)
chain 1: QELCLHERQRYRGLFAALAQTPSEEIAIVRSLSVPLVKTTPVSLPFCLDQTVADNCLTLSGMGYYLGIGGCCPACNAGDGRFAATSREALILAFVQQINTIFEHRAFLASLVVLADRHNAPLQDLLAGILGQPELFFVHTILRGGGACDPRLLFYPDPTYGGHMLYVIFPGTSAHLHYLLIDRMLTACPGYRFVAHVWQSTFVLVVRRNAEKPTDAEIPTVSAADIYCKMRDISFDGGLMLEYQRLYATFDEFPPP
chain 2: AFEGLVQRIRLIVPSTLRGGDGEAGPYSPSSLPSRCAFQFHGHDGSDESFPIEYVLRLMNDWAEVPCNPYLRIQNTGVSVLFQGFFHRPHNAPGGAITPERTNVILGSTETTGLSLGDLDTIKGRLGLDARPMMASMWISCFVRMPRVQLAFRFMGPEDAGRTRRILCRAA
notes: also called NEC-SUP_(UL31) crystallization construct; source: E. coli BL21(DE3) LoBSTr, co-expressed, purified (Ni Sepharose, Glutathione Sepharose, tags cleaved, Talon, Superdex 75)
stoichiometry N [6]: 6

B12
binding result [6]: binds

Source: article PMC10817169, “The universal suppressor mutation restores membrane budding defects in the HSV-1 nuclear egress complex by stabilizing the oligomeric lattice” (PLOS Pathogens, 2024)
